Test system: T1, recombinant MBP-peptide fusion protein (MBP-29)
T1 sequence: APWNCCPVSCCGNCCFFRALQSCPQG

Substance	enzymatic activity of MMP-9 after MMP-3 dependent activation ([3H]-labeled gelatin substrate)	enzymatic activity of MMP-9 ([3H]-labeled gelatin substrate, TCA soluble radioactivity)
ProMMP-9 activated with MBP-MMP3	MMP-3 dependent activation of MMP was inhibited in a dose-dependent manner	
proMMP-9 (CALBIOCHEM)		inhibited MMP-9 activity in a dose-dependent manner
